Starred links: 1 amine or outer side, 2 acyl side, 3 side chain; linkers in the order of their positions; H or OH if unused. Non-standard residues stand in square brackets, D forms with d. No end group written: not given here. *: point of attachment. 4‑nitrohippuryl = O=C(NCC(=O)*)c1ccc([N+](=O)[O-])cc1; Benzoyl(4-(pyrrol-1-yl)) = O=C(c1ccc(-n2cccc2)cc1)*; bis(2,3-dihydroxybenzyl) = not defined here; 10‑hydroxydecanoyl = O=C(CCCCCCCCCO)*; Cysteamide = C(CS[*:3])N[*:1]; Dap = NC[C@H](N)C(=O)O

In data set [1] the target is protein kinase C δ, Q05655. The data set is described as follows: cell-based or functional assay.
Data set [2] deals with a subset of other PKCs. The data set is described as follows: cell-based or functional assay.
The target of data set [3] is other PKC isoforms. The data set is described as follows: cell-based or functional assay.
Data set [4] concerns the target T1, acetyl-Pro-Arg-Lys-Arg-Glu-Gly-Ser-Val-Arg-Arg-Arg-NH2.
T1 chain: PRKREGSVRRR

With Ac-RRQG[Dap](Ac)FMYF-Cysteamide [Compound A (diacetylated consensus derivative)], the IC50, PKC kinase assay in data set [1] worked out at 50 µM. In the case of H-RRQG[Dap]FMYF-Cysteamide (not fully specified (residue 5)) [Compound E (nonacylated free amine)], in data set [1], the IC50, PKC kinase assay (33P, peptide substrate) was determined as 0.025 µM and the Selectivity (IC50 relative to PKC βI = 1) was 3.1 fold.

B1: Compound C (peptide)
peptide: Ac-RRQG[Dap](4‑nitrohippuryl)FMYF-Cysteamide
SMILES: CSCC[C@H](NC(=O)[C@H](Cc1ccccc1)NC(=O)[C@H](CNC(=O)CNC(=O)c1ccc([N+](=O)[O-])cc1)NC(=O)CNC(=O)[C@H](CCC(N)=O)NC(=O)[C@H](CCCNC(=N)N)NC(=O)[C@H](CCCNC(=N)N)NC(C)=O)C(=O)N[C@@H](Cc1ccc(O)cc1)C(=O)N[C@@H](Cc1ccccc1)C(=O)NCCS
Consider B1, for which the selectivity for PKC ζ versus a subset of other PKCs in data set [2] is < 10 fold. In the case of Ac-ARRGALR[Dap](Benzoyl(4-(pyrrol-1-yl)))A-Cysteamide [compound 3 (lead from library III)], in data set [3], the selectivity for PKCα versus other PKC isoforms was < 3 fold. Consider Ac-RRQG[Dap](10‑hydroxydecanoyl)FMYF-Cysteamide [Compound B], for which the selectivity for PKC ζ versus a subset of other PKCs in data set [2] is < 10 fold.

B2: protein kinase C ε (protein)
chain: MVVFNGLLKIKICEAVSLKPTAWSLRHAVGPRPQTFLLDPYIALNVDDSRIGQTATKQKTNSPAWHDEFVTDVCNGRKIELAVFHDAPIGYDDFVANCTIQFEELLQNGSRHFEDWIDLEPEGRVYVIIDLSGSSGEAPKDNEERVFRERMRPRKRQGAVRRRVHQVNGHKFMATYLRQPTYCSHCRDFIWGVIGKQGYQCQVCTCVVHKRCHELIITKCAGLKKQETPDQVGSQRFSVNMPHKFGIHNYKVPTFCDHCGSLLWGLLRQGLQCKVCKMNVHRRCETNVAPNCGVDARGIAKVLADLGVTPDKITNSGQRRKKLIAGAESPQPASGSSPSEEDRSKSAPTSPCDQEIKELENNIRKALSFDNRGEEHRAASSPDGQLMSPGENGEVRQGQAKRLGLDEFNFIKVLGKGSFGKVMLAELKGKDEVYAVKVLKKDVILQDDDVDCTMTEKRILALARKHPYLTQLYCCFQTKDRLFFVMEYVNGGDLMFQIQRSRKFDEPRSRFYAAEVTSALMFLHQHGVIYRDLKLDNILLDAEGHCKLADFGMCKEGILNGVTTTTFCGTPDYIAPEILQELEYGPSVDWWALGVLMYEMMAGQPPFEADNEDDLFESILHDDVLYPVWLSKEAVSILKAFMTKNPHKRLGCVASQNGEDAIKQHPFFKEIDWVLLEQKKIKPPFKPRIKTKRDVNNFDQDFTREEPVLTLVDEAIVKQINQEEFKGFSYFGEDLMP
As to B2, the “Km of the peptide substrate” value in data set [4] is on record as 5.9 µM (PKCε). In turn, ARRGALR[Dap](Benzoyl(4-(pyrrol-1-yl)))A-Cysteamide (also: further groups not given here) [compound 6 (primary lead from library IV)] came in with a selectivity for PKCα versus this isoform in data set [1] of 2730 fold. On to {bis(2,3-dihydroxybenzyl)}-RRQG[Dap](4‑nitrohippuryl)FMYF-Cysteamide (reading uncertain) [Compound G (doubly alkylated analogue of F)], for which, in data set [1], the Fold selectivity (IC50), PKC ζ = 1 was determined as 693 fold and the IC50, PKC kinase assay (33P, peptide substrate) was 5.2 µM.

The values are drawn from patent US7902330.
